# Reference: the supplement of paper PMC9170038
# Test system: MS2 coat protein
# Experiment: apparent KD of MS2 coat protein; higher = weaker reporter binding
# Conditions: Eterna round: R107; input ligand: theophylline 2 mM
# Description: (§1)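 RNA-MaP round R107: designed RNA switches with theophylline, tryptophan, arginine or FMN aptamers are transcribed on-chip within common flanks. They are titrated with SNAP-549-labelled MS2 coat protein in RNA-MaP buffer (100 mM Tris pH 7.5, 80 mM KCl, 4 mM MgCl2), without ligand or with the indicated ligand. Median apparent KD per design.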
row,Sequence,apparent KD of MS2 coat protein
1,AGUCUUGUGGGAAGGAGCGCAUACUUCACAUGAGGAUCACCCAUGUCAAGACGUGAGUCAGUGCAGGUAGGUCGCCUAACUAAGA [Same State - Arginine B (Freestyle 15)],35.8 nM
2,CUAUUCUGUACGGCCGCCACUUCAACGUGUAAGCUGGUGGUCCACUACAUGAGGAUCACCCAUGUAAGGACCGGGUACGGCGCGG [theeternabot_exclusion_MS2_Trp_B_29],69.4 nM
3,GCCUAGCAGCGAAGGAGCGACAUCGGCGCAUGCGAGGACAUGAGGAUCACCCAUGUACCAUGUCAGGUAGGUCGCGCUGCUAGGC [EAB NP+V+V2 #6],23.2 nM
4,UGAGUUAGACAAAAGUCUAGCUCUGGUGAAGGAGCGUCCGAAAGGACAGGUAGGUCGCACCACAUGAGCAUCAGCCAUGUUCCUU [ArgAS 23 #OpenEnded #AlternativeMS2],17.8 nM
5,UAUCCACAUGAGGAUCACCCAUGUGAGGAAGGAGCGGUGAAUGCACCAGGUAGGUCGCCUUGCUGAGGACAGCCGGUGGAUUCGU [Exclusion - Arginine A (Freestyle 25)],15.8 nM
6,AUAUAUGACAGAAGGAGCGCCAUGAACACACAUGAGGAUCACCCAUGUUUUUUUUGUGUUUGGCAGGUAGGUCGCUGACAUGAAA [Same State Arginine B 3],11.6 nM
7,ACAUGAGGAUCACCCAUGUGAAGCAGGGUACGAGGACCGGUACGGCCGCCACUCGAACAUUAUAACGAGUGAAUGGCAACGAUGU [B15Jan],13.8 nM
8,CCUAUGCAGUCGGCCGCCACUGAGUCCUCAAUAAUAAAUUAAUAAACAUGAGGAUCACCCAUGUACAGGACCGGGACUGUAUAGG [Ex Tryptophan B 12],441 nM
9,ACAUGAGGAUCACCCAUGUAAGAUUCAGAAGGAGCGGGAAAUAACCCAGGUAGGUCGCUGAAGUUUGGUUUAUUGUGUUCGUGAA [#07 Exclusion - Arginine A],11.5 nM

# Same assay, conditions: Eterna round: R107; input ligand: tryptophan 2.4 mM
row,Sequence,apparent KD of MS2 coat protein
1,UCUACAUGAGGAUCACCCAUGUGCCAUGAUACCAGACAUGAAAAUGUCCCUUGGCAGCGUGGGUAGCGCAUCCGAAAGGAUGCGC [#08 SameState-TheophyllineA],20.5 nM
2,CCUCGACAUGAGGAUCACCCAUGUAGAGAUACCAGCCUGUGAGAUGGCCCUUGGCAGCUCAUAUAGGGUACGGGAGUCGUUUCGA [Eslaqu],22.1 nM
3,UUCUACAUGAGGAUCACCCAUGUAAACGAUACCAGACGAGUAUUAGUCCCUUGGCAGCGUAGAGUGUCGUUUAUAGUAGGAUACC [TheoA-ms2@5],21 nM
4,CCUAUGCAGUCGGCCGCCACUGAACAUGAGGAUCACCCAUGUAACGGAAACGAAGAUCCUGAAAUCAGGACCGGGACUGUAUAGG [Ex Tryptophan B 3],382 nM
5,AUAAGUAAUGUUACGUGUUUUAUUACAGAUACCAGACUAUACGUUGUCCCUUGGCAGCUGAAUUACAUGAGGAUCACCCAUGUUG [JR_ExcTheophyA_Sub004],15.1 nM
6,CCAUGCAGGUCGGCCGCCACUACACACAUGAGGAUCACCCAUGUAGUUACUGGGUGAAGUGGCAGUAGGACCGGGACCUGCAUAC [Brourdmod12],395 nM
7,ACAUGAGGAUCACCCAUGUCUGCCACUGAUACCAGCGGAAGCCCACGCCCUUGGCAGCAGAACAUGAGGAUCACCCAUGUAGGCU [Same State Theophylline A GF28],201 nM
8,AGUCUUGUGGGAAGGAGCGCAUACUUCACAUGAGGAUCACCCAUGUCAAGACGUGAGUCAGUGCAGGUAGGUCGCCUAACUAAGA [Same State - Arginine B (Freestyle 15)],28.2 nM
9,CUAUUCUGUACGGCCGCCACUUCAACGUGUAAGCUGGUGGUCCACUACAUGAGGAUCACCCAUGUAAGGACCGGGUACGGCGCGG [theeternabot_exclusion_MS2_Trp_B_29],40 nM
10,UCAUUUGAGUGAGAUGUAAGGUAUCAUGAUACCAGUAGAUAAUUAUACCCUUGGCAGCAUGACAUGAGGAUCACCCAUGUACAUG [Ad],12.3 nM
11,AAUAAUCUAGGUGAUACCAGCUCAACAUGAGGAUCACCCAUGUACUCAUGUAGAGUUGAGAGCCCUUGGCAGCACCUAGAUAAUA [(Theo1)-(Ms2)-(M)'-(T)'-(Theo2)],1020 nM
12,ACACACAUGAGGAUCACCCAUGUAAUAGAUACCAGUGACGCGGUGCACCCUUGGCAGCUGCUGCUGAGUGAUGGUUCCCUCGGAA [Exclusion Theophylline A GF7],19.2 nM
13,GCCUAGCAGCGAAGGAGCGACAUCGGCGCAUGCGAGGACAUGAGGAUCACCCAUGUACCAUGUCAGGUAGGUCGCGCUGCUAGGC [EAB NP+V+V2 #6],24.5 nM
14,UGAGUUAGACAAAAGUCUAGCUCUGGUGAAGGAGCGUCCGAAAGGACAGGUAGGUCGCACCACAUGAGCAUCAGCCAUGUUCCUU [ArgAS 23 #OpenEnded #AlternativeMS2],16.8 nM
15,UUCUGGUCCCGUGAUACCAGAGACAUGAGGAUCACCCAUGUACAUGAGGAUCACCCAUGUUUCCCUUGGCAGCACUGUAGGGAGC [Exclusion Theophylline B GF 16],207 nM
16,ACGUCACGUUUACUCGUGGUUUCGAUCGAUACCAGUAGCGAGAGUUACCCUUGGCAGCGACAUGAGGAUCACCCAUGUACGAAGA [XTheo A #25],12 nM
17,GCUGCCGUCGGUGAAAACUCCCAUGCAGAUACCAGCGCAUUCCGCCGCCCUUGGCAGCUGCAUACAUGAGGAUCACCCAUGUGUU [theeternabot_exclusion_MS2_Theo_A_48],77.3 nM
18,UAUCCACAUGAGGAUCACCCAUGUGAGGAAGGAGCGGUGAAUGCACCAGGUAGGUCGCCUUGCUGAGGACAGCCGGUGGAUUCGU [Exclusion - Arginine A (Freestyle 25)],18.3 nM
19,AUAUAUGACAGAAGGAGCGCCAUGAACACACAUGAGGAUCACCCAUGUUUUUUUUGUGUUUGGCAGGUAGGUCGCUGACAUGAAA [Same State Arginine B 3],9.98 nM
20,AUAUGAUCAUAGGAUACCAGAAAUGGUAUUCCUUUAUUUCUUACAUGAGGAUCACCCAUGUUCCCUUGGCAGCUUAUGAUCAUAU [ETHB #4],107 nM
21,GGUGGGACUUGUGAUACCAGCCCAAUUCGAAUCGAAUUGCACAUGAGGAUCACCCAUGUCGGCCCUUGGCAGCAUGAGUAUUUAU [Ricerixe],313 nM
22,ACAUGAGGAUCACCCAUGUAAGAUUCAGAAGGAGCGGGAAAUAACCCAGGUAGGUCGCUGAAGUUUGGUUUAUUGUGUUCGUGAA [#07 Exclusion - Arginine A],11.5 nM

# Test system: K4 kissing-loop RNA reporter;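 note: bound reporter read as fluorescence of individual clusters on recovered sequencing chips by microscopy, with normalized cluster intensities fitted with a binding model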
# Experiment: apparent KD of K4 kissing-loop reporter; higher = weaker reporter binding
# Conditions: Eterna round: R107; input ligand: FMN 200 uM
# Description: as §1, with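 “a labelled K4 kissing-loop RNA reporter” for “SNAP-549-labelled MS2 coat protein”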
row,Sequence,apparent KD of K4 kissing-loop reporter
1,AGGCACGAGCAAGGAUAUCGAGUAGAGUGAUGUUCUGCCUGGGUUGGCGCGUAAGGGCCUUCCCAGCGAGAAGGUGCUCGUGCCU [#2 Same State - FMN A Attempt #12 (HarryS)],253 nM
2,AGUGAUGUAUGGCGGUUUGUCACUUAAAAUCAGGAUAUAUAAACAAAUAGAAGGGAUGGCGGAGUGAUGUUCCGCCGGCCGCCAU [FMN A Exl V1],171 nM
3,GGUAGCAUGGCGGCCGCCACUGCAAAGCAUAGCUACGGAAACGUAGCUACAGAGUGAUGUUCUGGCAGGACCGGGCCAUGCUACC,675 nM
4,AAAUUUUCAAGUGAUACCAGACAUUUCUAUUACAUUAAUAUAGCUAAGUGAUGUUUAGCAGUCCCUUGGCAGCACUAUUUAAUUA [JR_SSTheophyB_Sub014],201 nM
5,GCCGUACGCAUGGAUACCAGCAACCCUGCCAUCCCAGUGAUGUUGGGAGGAACAUUCUCAUGCCCUUGGCAGCCAUGCGUACGGC,534 nM
6,GGGCCUCUGGCUGAUACCAGUGAUGCAGGGUCCGAGACAGGGAGUGAUGUUCCCUGCAGCCACCCUUGGCAGCAGUUUAAGUUUG [Exclusion Theophylline B GF 19],136 nM
7,GGAUAGGACAGAGGAUAUCCUGAGGCAAGAAACUUGUCUCAUAAAGGAUGAAUCCUAGUGAUGUUAGGAGAAGGCUGUCCUAUCG [FmnBX 15 - #SwitchBubble #StaticStem #Palindromic],172 nM
